Here are results for three molecules from patent US20200399385A1 (Bristol-Myers Squibb, published 2020).

The term IC50 denotes the point on the concentration scale where inhibition reaches its midpoint. Read a low IC50 as greater potency. The term EC50 denotes the concentration giving half of the maximal effect. Higher therefore signals a less potent agent. Usually Kd stands for a measure of binding affinity in units of concentration. A lower Kd goes with higher affinity. As a reminder, the koff is the first-order rate constant of dissociation. As a reminder, the kon is the rate constant with which the complex forms. A lower kon goes with slow association.

The target of assay [1] is T1, human OX40 on cells (human, UniProt P43489 29-277).
T1 construct: also called hOX40-293 cells; hOX40-HT1080
T1 sequence: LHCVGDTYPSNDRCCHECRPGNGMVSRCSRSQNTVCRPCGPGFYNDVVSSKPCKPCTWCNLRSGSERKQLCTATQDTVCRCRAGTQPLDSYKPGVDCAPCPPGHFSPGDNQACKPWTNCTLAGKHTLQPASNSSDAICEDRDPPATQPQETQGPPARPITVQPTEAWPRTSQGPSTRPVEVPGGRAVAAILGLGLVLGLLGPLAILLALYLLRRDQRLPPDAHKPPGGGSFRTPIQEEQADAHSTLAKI
The assay can be described thus: FACS competition on HT1080-hOX40 cells against APC-OX40.1 (FL2 MFI); the table gives no unit, axis 'Ab conc nM'. Here is the method: This experiment was performed to test the cross-blocking properties of various anti-OX40 antibodies to assess binding specificities. […] Cells were washed and if necessary further incubated in the presence of streptavidin-APC conjugate under the same conditions. After the final wash, cells were analyzed on a FACSCanto flow cytometer (BD Bioscience, San Jose, Calif.). Mean fluorescence intensity (MFI) signal was proportional to bound conjugated antibody.

The target of assay [2] is T1, human OX40 on cells. The assay can be described thus: FACS, activated human T cells; mean ± SD, n=2. Here is the method:
Cells were activated for several days before the binding assay in order to induce OX40 expression. Briefly, PBMCs were cultured for three or four days with magnetic beads coated with anti-human CD3 plus anti-human CD28, in the presence of recombinant human IL-2. On the day of the assay, the beads were removed and the cells stained with a titration of each anti-OX40 antibody. Bound antibodies were detected with a fluorescently conjugated anti-human IgG polyclonal secondary antibody, and the cells were co-stained for CD4 and CD25 to detect activated CD4 T cells. The fluorescence intensity of the staining was measured using a FACSCanto II flow cytometer (Becton Dickinson). The geometric mean fluorescence intensity (GMFI) or median fluorescence intensity (MedFI) of anti-OX40 antibody staining was calculated for the CD4+CD25+ population (FACSDiva software). EC₅₀s for antibody binding were calculated using GraphPad Prism software.
(A flow cytometer gives signals particle by particle.)

The target of assay [3] is T1, human OX40 on cells. Briefly: FACS, blocking of OX40L-His (0.2 µg/mL) binding to hOX40-293 cells. On the procedure: Briefly, 293 cells stably transfected with human OX40 were first pre-incubated with varying concentrations of anti-OX40 antibodies. […] The fluorescence intensity of the staining was measured using a FACSCanto II flow cytometer (Becton Dickinson).
Assay [4] concerns the target T2, his-tagged soluble human OX40 (huOX40-6xhis) (human, UniProt P43489 29-214).
T2 construct: made in-house; also called Human-OX40-6XHIS; hOX40; not shown: hexahistidine tag
T2 sequence: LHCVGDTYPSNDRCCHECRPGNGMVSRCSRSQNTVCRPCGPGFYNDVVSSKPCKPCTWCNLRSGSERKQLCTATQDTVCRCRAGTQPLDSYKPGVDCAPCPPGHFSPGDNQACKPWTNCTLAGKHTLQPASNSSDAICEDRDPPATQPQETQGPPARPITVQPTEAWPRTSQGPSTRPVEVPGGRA
Briefly: SPR, mAb captured on anti-human CH1, OX40-6XHIS analyte, 1:1 fit. On the procedure: The affinity of several OX40 antibodies for soluble human OX40 was tested by SPR analysis. […] Human-OX40-6XHIS antigen in either a single concentration of 400 nM or a 1:2 serial dilution from 400 nM was used. Experiments were carried out on BIACORE® T200 or BIACORE® 3000 SPR instruments. Data was fit to a 1:1 model.

For assay [5], the target named is T3, cynomolgus OX40 on cells (cynomolgus, UniProt P43489 29-277 (human entry)).
T3 construct: also called cynoOX40-CHO
T3 chain: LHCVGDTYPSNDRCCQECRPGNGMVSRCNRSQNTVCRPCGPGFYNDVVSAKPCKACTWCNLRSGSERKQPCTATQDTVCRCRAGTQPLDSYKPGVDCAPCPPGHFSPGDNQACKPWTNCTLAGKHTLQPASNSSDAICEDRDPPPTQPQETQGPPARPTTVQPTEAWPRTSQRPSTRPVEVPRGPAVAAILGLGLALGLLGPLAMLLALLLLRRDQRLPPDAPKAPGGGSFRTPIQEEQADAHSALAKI
The assay can be described thus: FACS, activated cyno T cells; n=1. On the procedure: (§1) Briefly, cells were activated for several days before the binding assay in order to induce OX40 expression. Total leukocytes were isolated from cynomolgus macaque peripheral blood by lysis of red blood cells using an ammonium chloride buffer. The leukocytes were then cultured for four to five days with in flasks pre-coated with anti-human CD3 plus anti-human CD28 antibodies that cross-react with cynomolgus macaque, in the presence of recombinant human IL-2, in order to expand and activate T cells. On the day of the assay, the cells were harvested and stained with a titration of each anti-OX40 antibody. Bound antibodies were detected with a fluorescently conjugated anti-human IgG polyclonal secondary antibody, and the cells were co-stained for CD4 and CD25 to detect activated CD4 T cells. The fluorescence intensity of the staining was measured using a FACSCanto II flow cytometer (Becton Dickinson). The geometric mean fluorescence intensity (GMFI) or median fluorescence intensity (MedFI) of anti-OX40 antibody staining was calculated for the CD4+CD25+ population (FACSDiva software). Dose-response curves were generated and EC50s for antibody binding were calculated using GraphPad Prism software.

The target of assay [6] is T1, human OX40 on cells. Briefly: cell-based or functional assay.
Assay [7] concerns the target T3, cynomolgus OX40 on cells. Briefly: FACS, activated cyno CD4 T cells. Here is the method: as §1
The same experiment was performed with anti-OX40 antibodies with variable region substitutions.

In assay [8] the target is T1, human OX40 on cells. Briefly: FACS competition on hOX40-293 cells: unlabeled antibody first, then PE-labeled L106 (2.5 ug/mL per the text). On the procedure: Briefly, 293 cells stably transfected with human OX40 were first incubated with varying concentrations of unlabeled anti-OX40 antibodies. […] The fluorescence intensity of the staining was measured using a FACSCanto II flow cytometer (Becton Dickinson).

Assay [9] concerns the target T3, cynomolgus OX40 on cells. The assay can be described thus: FACS, activated cyno T cells; mean ± SD, n=4; mean ± SD of n=4 experiments (Table 8), not the single experiment of FIGS. 12A and 12B. Here is the method: as §1
Assay [10] deals with T3, cynomolgus OX40 on cells. Briefly: FACS, activated cyno T cells; mean ± SD, n=5. Here is the method:
as §1

Assay [11] concerns the target T1, human OX40 on cells. Briefly: cell-based or functional assay. This is another data set of the same source.
In assay [12] the target is T1, human OX40 on cells. Briefly: FACS competition on hOX40-293 cells against biotin-OX40.5 (spike biotOX.5 @ 1.0 ug/mL, streptavidin-APC); partial inhibition, FL4-MFI falls from about 29000 to about 17000; the table gives no unit, axis in nM.
Assay [13] concerns the target T1, human OX40 on cells. Briefly: FACS, activated human T cells; mean ± SD, n=7.

Some results are limits rather than exact numbers.

B1: 14B6 (antibody, V domains shown)
VH: EVQLEQSGAEVKKPGESLKISCKGSGYSFTSNWIGWVRQMPGKGLEWMGFIYPGDSDTRYSPSFQGQVTISADKSISTAYLQWSSLKASDIAMYYCARYGDDWYFDLWGRGTLVTVSS
VL: EIVLTQSPATLSLSPGERATLSCRASQSVSSYLAWFQQRPGQAPRLLIYDASNRATGIPARFSGSGSGTDFSLTISSLEPEDFAVYYCQQRGDWPITFGQGTRLEIK
notes: also called 14B6.C5.C8; 14B6.C5
The molecule B1 showed a concentration for half-maximal inhibition (IC50) in [1] of 0.7 nM. Further, the midpoint of the response in assay [2], the EC50, lay at 0.18 nM. Also, in [3], a half-maximal response (EC50) required 1 nM. In assay [4], this molecule displayed a Kd of 8.84 nM, a koff of 0.000654 s⁻¹ and an on-rate (kon) of 74000 M⁻¹ s⁻¹. Also, in [5], the concentration giving a half-maximal response (EC50) came out at 0.31 nM. Moreover, in assay [6], the “Proliferation EC50, CD4 T cells + CHO-CD3-CD32A” value (“Proliferation EC50” below) is 0.012 nM.

B2: 18E9 (antibody, V domains shown)
VH: EVQLVQSGGGLVHPGGSLRLSCAHSGFTFTSSAMHWVRQAPGKGLEWISAIGTGGDTYYADSVKGRFTISRDNAKNSLYLQINSLRAEDMAVYYCARDFYDILTGIFDYWGQGTLVTVSS
VL: DIQMTQSPSSVSASVGDRVTITCRASQGISSWLAWYQHKPGKAPKLLIYAASSLQSGVPSRFSGSGSGTDFTLTISSLQPEDFATYYCQQANSFPSTFGQGTKVEIK
notes: human mAb from hybridoma; also called 18E9.G5.H4; 18E9.G5
Regarding B2, the 50% effective concentration (EC50) in assay [7] was 1 to 1.5 nM; in assay [2] it was 0.22 nM; in [3], 0.48 nM; in [9], 41.7 nM. Moreover, in [8], the “IC50 (read off the curve)” value is ~1 µg/mL. This molecule had a Kd in assay [4] of 2.04 nM. In assay [4], this molecule had a dissociation rate constant (koff) of 0.000139 s⁻¹. The same molecule came in with an on-rate constant (kon) in [4] of 68300 M⁻¹ s⁻¹. In assay [6], the “Proliferation EC50” value is 0.01 nM.

B3: OX40.6 (antibody, human IgG1, kappa, V domains shown)
VH: EVQLVQSGGGLVQPGGSLRLSCAGSGFTFSNYAMYWVRQAPGKGLEWVSAIGIGGDTFYTDSVKGRFTISRDNAKNSLSLQMNSLRAEDTAVYYCARMGTGYFFDYWGQGTLVTVSS
VL: EIVLTQSPATLSLSPGERATLSCRASQSVSSYLAWYQQKPGQAPRLLIYDASNRATGIPARFSGSGSGTDFTLTISSLEPEDFAVYYCQQRSNWPLTFGPGTKVDIKR
On to B3, for which the concentration for a half-maximal effect (EC50) in assay [7] was ≤ 0.12 nM. Also, a half-maximal effect in [10] (EC50) was put at 0.11 nM. Moreover, in assay [11], the “IL-2 EC50, SEB PBMC, donor BMS-001” value was found to be 0.49 nM; the “IL-2 EC50, SEB PBMC, donor BMS-004” value was 0.48 nM; the “IL-2 EC50, SEB PBMC, donor BMS-009” value stood at 0.45 nM; the “IL-2 EC50, SEB PBMC, donor BMS-012” value stood at 0.66 nM. Besides, in assay [11], the “IL-2 EC50, SEB PBMC, donor BMS-015” value was ~0.46 nM; the “IL-2 EC50, SEB PBMC, donor BMS-016” value turned out to be 0.29 nM; the “IL-2 EC50, SEB PBMC, donor WB10024” value was ~0.42 nM; the “IL-2 EC50, SEB PBMC, donor WB10025” value was ~0.85 nM. In addition, in assay [11], the “IL-2 EC50, SEB PBMC, donor WB10026” value is 0.28 nM; the “IL-2 EC50, SEB PBMC, donor WB10027” value turned out to be 0.45 nM; the “IL-2 EC50, SEB PBMC, donor WB10137” value amounted to 0.56 nM; the “IL-2 Mean EC50, SEB PBMC, all donors” value turned out to be 0.46 nM. This molecule also showed an EC50 in [12] of 0.857 nM. In assay [13], the EC50 was determined as 0.13 nM. In assay [6], the “IFNγ EC50, CD4 T cells + CHO-CD3-CD32A” value came out at 0.033 nM and the “Proliferation EC50” value is 0.032 nM.
